Test results as given in the supplement of paper PMC6757056.
± gives the standard deviation of the averaged measurements.

B1: library; a variant is named by its letters at N, in order (parent)
chain: GCUGUCACCGAGAAACUGUGAAGUAUAUCUUAAACCUGGGCACUUAAAAGAUAUAUGGAGUUAGUAGUGCAACCUGCUCGGUCUGAUGAGUCCNNNNNNGGACGAAACAGC

Columns and labels:
cyclic di-GMP [1] = variants of: B1; test: normalized RNA/DNA level without ligand (relative to sTRSVctl = 100) (log10 (% of sTRSVctl)); HEK293T; ligand: cyclic di-GMP (c-di-GMP-II aptamer); higher = less ribozyme self-cleavage, higher mRNA level; conditions: reporter: mCherry (pCS4076), ligand present: no
Summary of the method: (§1)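 HEK293T cells were transfected with library plasmids carrying ribozyme switches linked to an mCherry reporter, or an eGFP reporter in some ligand experiments, at 4 µg per well of a 6-well plate, with any ligand added 1 h beforehand. After 72 h, total RNA was extracted with EDTA, reverse-transcribed, amplified, barcoded and sequenced. RNA level was defined as RNA reads over DNA reads, normalized to a spiked-in non-cleaving sequence or to the top-ranked sequences. That value was multiplied by 100 and converted to log10, the top set was 25 sequences, and only sequences with ≥100 DNA reads were retained.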

cyclic di-GMP [2] = variants of: B1; test: normalized RNA/DNA level with ligand (relative to sTRSVctl = 100) (log10 (% of sTRSVctl)); HEK293T; ligand: cyclic di-GMP (c-di-GMP-II aptamer); ligand concentration (+) RNA-Seq: 1 mM; higher = less ribozyme self-cleavage, higher mRNA level; conditions: reporter: mCherry (pCS4076), ligand present: yes
Summary of the method: as §1

Row | Variant | normalized RNA/DNA level without ligand (log10) (cyclic di-GMP [1]) | normalized RNA/DNA level with ligand (log10) (cyclic di-GMP [2])
1 | GCUGUCACCGAGAAACUGUGAAGUAUAUCUUAAACCUGGGCACUUAAAAGAUAUAUGGAGUUAGUAGUGCAACCUGCUCGGUCUGAUGAGUCCGAUAGCGGACGAAACAGC | 1.64 ± 0.019 | 1.76 ± 0.14
2 | GCUGUCACCGAGAAACUGUGAAGUAUAUCUUAAACCUGGGCACUUAAAAGAUAUAUGGAGUUAGUAGUGCAACCUGCUCGGUCUGAUGAGUCCGAUAGAGGACGAAACAGC | 1.46 ± 0.11 | 1.64 ± 0.094
3 | GCUGUCACCGAGAAACUGUGAAGUAUAUCUUAAACCUGGGCACUUAAAAGAUAUAUGGAGUUAGUAGUGCAACCUGCUCGGUCUGAUGAGUCCGAUACUGGACGAAACAGC | 1.7 ± 0.025 | 1.82 ± 0.068
4 | GCUGUCACCGAGAAACUGUGAAGUAUAUCUUAAACCUGGGCACUUAAAAGAUAUAUGGAGUUAGUAGUGCAACCUGCUCGGUCUGAUGAGUCCGAUACGGGACGAAACAGC | 1.62 ± 0.019 | 1.76 ± 0.12
5 | GCUGUCACCGAGAAACUGUGAAGUAUAUCUUAAACCUGGGCACUUAAAAGAUAUAUGGAGUUAGUAGUGCAACCUGCUCGGUCUGAUGAGUCCUAUACCGGACGAAACAGC | 1.76 ± 0.053 | 1.86 ± 0.1
6 | GCUGUCACCGAGAAACUGUGAAGUAUAUCUUAAACCUGGGCACUUAAAAGAUAUAUGGAGUUAGUAGUGCAACCUGCUCGGUCUGAUGAGUCCUAUACGGGACGAAACAGC | 1.75 ± 0.029 | 1.85 ± 0.11
7 | GCUGUCACCGAGAAACUGUGAAGUAUAUCUUAAACCUGGGCACUUAAAAGAUAUAUGGAGUUAGUAGUGCAACCUGCUCGGUCUGAUGAGUCCAAUAGCGGACGAAACAGC | 1.62 ± 0.047 | 1.8 ± 0.1
8 | GCUGUCACCGAGAAACUGUGAAGUAUAUCUUAAACCUGGGCACUUAAAAGAUAUAUGGAGUUAGUAGUGCAACCUGCUCGGUCUGAUGAGUCCAAUACUGGACGAAACAGC | 1.71 ± 0.023 | 1.84 ± 0.085
9 | GCUGUCACCGAGAAACUGUGAAGUAUAUCUUAAACCUGGGCACUUAAAAGAUAUAUGGAGUUAGUAGUGCAACCUGCUCGGUCUGAUGAGUCCCAUACUGGACGAAACAGC | 1.51 ± 0.044 | 1.7 ± 0.12
10 | GCUGUCACCGAGAAACUGUGAAGUAUAUCUUAAACCUGGGCACUUAAAAGAUAUAUGGAGUUAGUAGUGCAACCUGCUCGGUCUGAUGAGUCCCAUACGGGACGAAACAGC | 1.81 ± 0.051 | 1.91 ± 0.052
11 | GCUGUCACCGAGAAACUGUGAAGUAUAUCUUAAACCUGGGCACUUAAAAGAUAUAUGGAGUUAGUAGUGCAACCUGCUCGGUCUGAUGAGUCCCAUAGAGGACGAAACAGC | 1.54 ± 0.073 | 1.69 ± 0.031
12 | GCUGUCACCGAGAAACUGUGAAGUAUAUCUUAAACCUGGGCACUUAAAAGAUAUAUGGAGUUAGUAGUGCAACCUGCUCGGUCUGAUGAGUCCCAUAGGGGACGAAACAGC | 1.688 ± 0.011 | 1.85 ± 0.093
13 | GCUGUCACCGAGAAACUGUGAAGUAUAUCUUAAACCUGGGCACUUAAAAGAUAUAUGGAGUUAGUAGUGCAACCUGCUCGGUCUGAUGAGUCCCAUAGCGGACGAAACAGC | 1.73 ± 0.062 | 1.84 ± 0.13
